{"source": "paper PMC8505397", "about": "“Development of peptides targeting receptor binding site of the envelope glycoprotein to contain the West Nile virus infection” (Scientific Reports, 2021)", "molecules": {"B1": {"name": "recombinant domain III (DIII) of the envelope (E) glycoprotein of West Nile virus (domain or fragment)", "chain": "GTTYGVCSKAFKFLGTPADTGHGTVVLELQYTGTDGPCKVPISSVASLNDLTPVGRLVTVNPFVSVATANAKVLIELEPPFGDSYIVVGRGEQQINHHWHK"}}, "key": {"hBMECs": {"test_system": "hBMECs", "assay": "Peptide cytotoxicity assay (XTT)", "assay_type": "cell-based, human", "settings": "positive control; hBMECs; untreated = 100% viability", "protocol": "The toxicity of peptides was determined by the XTT test (AppliChem, USA) as per the manufacturer’s instructions. Details are presented in Supplementary Method S15. […]\nCytotoxicity assay. hBMECs were cultured in 96-well TPP tissue culture plates (Sigma) in supplemented EBM-2 medium (Lonza) to obtain ~70% confluency (as described in Supplementary Method S1). The peptides in concentrations of 1 µM, 2 µM, 4 µM, and 6 µM (diluted in 100 µL of EBM-2 medium supplemented only with 10% FBS, 10 mM HEPES and 1 ng/mL bFGF; Sigma) were added and incubated for 24 h at 37°C in a humid atmosphere of 5% CO2. Untreated cells served as a negative control (100% viability). For positive control, cells treated with 0.01% Triton X-100 were used. After incubation, the mixture of XTT and activation reagent (5:0.1 [v/v], 50 µL each well) was added to each well and incubated for an additional 3 h at 37°C in a humid atmosphere of 5% CO2. The absorbance was measured at 450 nm. The assay was performed in replicates. The viability (%) of endothelial cells was calculated using the formula: Cell viability (%) = [(A - xA ) × 100] / (xA -"}, "[1]": {"molecular_target": "proteins of hBMECs (human (endogenous in hBMECs))", "assay": "ELISA; proteins of hBMECs coated into microtiter wells, rDIII (2 µg, printed as 0.15 nM) added without pre-blocking; negative control (no rDIII) subtracted"}, "[2]": {"molecular_target": "T1, 7-mer cyclic peptide CP2 (ACX7CGGGS form of CTKTDVHFC) (disulfide 2-10 (inferred))", "T1 construct": "additional alanine at the N-terminus (ACX7CGGGS); peptide of phage clone CC2; C-terminal linker; source: E. coli SHuffle T5, purified; N-terminal tag cleaved with enterokinase and removed on nickel beads; not shown: His6, N-terminal, cleaved; 28 aa tag, N-terminal, cleaved", "T1 peptide": "ACTKTDVHFCGGGS", "assay": "ELISA; peptides covalently coated through their C-terminus in Nunc CovaLink NH plates (EDC plus sulfo-NHS), blocked with 0.5% BSA in PBS, incubated with rDIII, detected with HisProbe-HRP; negative control (no rDIII) subtracted", "settings": "both partners purified"}, "[3]": {"molecular_target": "T2, 7-mer cyclic peptide CP4 (ACX7CGGGS form of CIHSSTRAC) (disulfide 2-10 (inferred))", "T2 construct": "additional alanine at the N-terminus (ACX7CGGGS); peptide of phage clone CC4; C-terminal linker; source: E. coli SHuffle T5, purified; N-terminal tag cleaved with enterokinase and removed on nickel beads; not shown: His6, N-terminal, cleaved; 28 aa tag, N-terminal, cleaved", "T2 peptide": "ACIHSSTRACGGGS", "assay": "ELISA; peptides covalently coated through their C-terminus in Nunc CovaLink NH plates (EDC plus sulfo-NHS), blocked with 0.5% BSA in PBS, incubated with rDIII, detected with HisProbe-HRP; negative control (no rDIII) subtracted", "settings": "both partners purified"}, "[4]": {"molecular_target": "T3, 7-mer cyclic peptide CP6 (ACX7CGGGS form of CMQTQRAHC) (disulfide 2-10 (inferred))", "T3 construct": "additional alanine at the N-terminus (ACX7CGGGS); peptide of phage clone CC6; C-terminal linker; source: E. coli SHuffle T5, purified; N-terminal tag cleaved with enterokinase and removed on nickel beads; not shown: His6, N-terminal, cleaved; 28 aa tag, N-terminal, cleaved", "T3 peptide": "ACMQTQRAHCGGGS", "assay": "ELISA; peptides covalently coated through their C-terminus in Nunc CovaLink NH plates (EDC plus sulfo-NHS), blocked with 0.5% BSA in PBS, incubated with rDIII, detected with HisProbe-HRP; negative control (no rDIII) subtracted", "settings": "both partners purified"}, "[5]": {"molecular_target": "T4, 7-mer cyclic peptide CP7 (ACX7CGGGS form of CTNANHYFC) (disulfide 2-10 (inferred))", "T4 construct": "additional alanine at the N-terminus (ACX7CGGGS); peptide of phage clone CC7; C-terminal linker; source: E. coli SHuffle T5, purified; N-terminal tag cleaved with enterokinase and removed on nickel beads; not shown: His6, N-terminal, cleaved; 28 aa tag, N-terminal, cleaved", "T4 peptide": "ACTNANHYFCGGGS", "assay": "ELISA; peptides covalently coated through their C-terminus in Nunc CovaLink NH plates (EDC plus sulfo-NHS), blocked with 0.5% BSA in PBS, incubated with rDIII, detected with HisProbe-HRP; negative control (no rDIII) subtracted", "settings": "both partners purified"}, "[6]": {"molecular_target": "T5, 7-mer cyclic peptide CP12 (ACX7CGGGS form of CTYENHRTC) (disulfide 2-10 (inferred))", "T5 construct": "additional alanine at the N-terminus (ACX7CGGGS); peptide of phage clone CC12; C-terminal linker; source: E. coli SHuffle T5, purified; N-terminal tag cleaved with enterokinase and removed on nickel beads; not shown: His6, N-terminal, cleaved; 28 aa tag, N-terminal, cleaved", "T5 peptide": "ACTYENHRTCGGGS", "assay": "ELISA; peptides covalently coated through their C-terminus in Nunc CovaLink NH plates (EDC plus sulfo-NHS), blocked with 0.5% BSA in PBS, incubated with rDIII, detected with HisProbe-HRP; negative control (no rDIII) subtracted", "settings": "both partners purified"}, "[7]": {"molecular_target": "T6, 7-mer cyclic peptide CP15 (ACX7CGGGS form of CDPRHSKFC) (disulfide 2-10 (inferred))", "T6 construct": "additional alanine at the N-terminus (ACX7CGGGS); peptide of phage clone CC15; C-terminal linker; source: E. coli SHuffle T5, purified; N-terminal tag cleaved with enterokinase and removed on nickel beads; not shown: His6, N-terminal, cleaved; 28 aa tag, N-terminal, cleaved", "T6 peptide": "ACDPRHSKFCGGGS", "assay": "ELISA; peptides covalently coated through their C-terminus in Nunc CovaLink NH plates (EDC plus sulfo-NHS), blocked with 0.5% BSA in PBS, incubated with rDIII, detected with HisProbe-HRP; negative control (no rDIII) subtracted", "settings": "both partners purified"}, "[8]": {"molecular_target": "T7, 7-mer cyclic peptide CP16 (ACX7CGGGS form of CLAQSHPLC) (disulfide 2-10 (inferred))", "T7 construct": "additional alanine at the N-terminus (ACX7CGGGS); peptide of phage clone CC16; C-terminal linker; also called C16; source: E. coli SHuffle T5, purified; N-terminal tag cleaved with enterokinase and removed on nickel beads; not shown: His6, N-terminal, cleaved; 28 aa tag, N-terminal, cleaved", "T7 peptide": "ACLAQSHPLCGGGS", "assay": "ELISA; peptides covalently coated through their C-terminus in Nunc CovaLink NH plates (EDC plus sulfo-NHS), blocked with 0.5% BSA in PBS, incubated with rDIII, detected with HisProbe-HRP; negative control (no rDIII) subtracted", "settings": "both partners purified"}, "[9]": {"molecular_target": "T8, 12-mer linear peptide LP3 (X12GGGS form of SGVYKVAYDWQH)", "T8 construct": "peptide of phage clone LC3; C-terminal linker; source: E. coli SHuffle T5, purified; N-terminal tag cleaved with enterokinase and removed on nickel beads; not shown: His6, N-terminal, cleaved; 28 aa tag, N-terminal, cleaved", "T8 peptide": "SGVYKVAYDWQHGGGS", "assay": "ELISA; peptides covalently coated through their C-terminus in Nunc CovaLink NH plates (EDC plus sulfo-NHS), blocked with 0.5% BSA in PBS, incubated with rDIII, detected with HisProbe-HRP; negative control (no rDIII) subtracted", "settings": "both partners purified"}}, "note": "Positions of bridges follow the written chain, without caps; N, C: chain ends. No end group written: not given here."}
{"molecule": "Triton X-100 [reference compound]", "values": [{"measurement": "cell viability (XTT)", "setting": "hBMECs", "result": "< 2.8", "unit": "%"}]}
{"molecule": "recombinant domain III (DIII) of the envelope (E) glycoprotein of West Nile virus (domain or fragment)", "values": [{"measurement": "A450", "setting": "[1]", "result": 1.06}]}
{"molecule": "B1", "values": [{"measurement": "A450", "setting": "[2]", "result": "> 1.9"}, {"measurement": "A450", "setting": "[3]", "result": "> 1.9"}, {"measurement": "A450", "setting": "[4]", "result": "> 1.9"}, {"measurement": "A450", "setting": "[5]", "result": "> 1.9"}, {"measurement": "A450", "setting": "[6]", "result": "> 1.9"}, {"measurement": "A450", "setting": "[7]", "result": "> 1.9"}, {"measurement": "A450", "setting": "[8]", "result": "> 1.9"}, {"measurement": "A450", "setting": "[9]", "result": 2.56}]}
